“Also recorded” adds a separate entry of the source.
Key:
GSK-3α/β [1] = test: phospho-GSK-3α (Ser21)/GSK-3β (Ser9) Western blot in mouse N2a/N2aSwe cells; format: cell-based
Source text: The accumulation of βCTF can also be attributed to decrease in γ-secretase cleavage. However, the Notch cleavage was not altered by overexpression of the recombinant FG01 (FIG. 9A). […] Thus, the activities of GSK-3α/β were examined with or without overexpressing FG01. First, the levels of phospho-GSK3α at Ser21 and GSK-3β at Ser9 (the inactivated forms of GSK3) were quantified using the specific antibodies.
The levels of the recombinant Notch (NotchΔE with Myc-tag) and the γ-secretase cleaved Notch fragment (NICD) were quantified by Western blotting using myc antibody and an antibody specific to processed Notch followed by densitometry. […] The results represent at least four independent experiments.
The levels of total GSK-3 were used as normalization factors.
(§1) Although the possibility that FG01 may modulate substrate specificity or accessibility to γ-secretase can not be excluded, it is equally possible that FG01 regulates other proteins/pathways functioning in APP processing and Aβ generation. […] Thus, the activities of GSK-3α/β were studied in the presence or absence of FG01 overexpression by examining levels of phospho-GSK-3α (Ser 21) and phospho-GSK-3β (Ser 9) (which represent inactivated forms of GSK-3) and by in vitro kinase assays.

β-secretase (BACE1) = β-secretase (BACE1) in vitro activity and protein level in FG01-overexpressing cells; format: cell-based, mouse
Description: The in vitro activity of β-secretase (BACE1) was assayed using a commercial kit (Calbiochem), following the manufacturer's protocol.
To determine whether FG01 reduces Aβ generation by modulating β-secretase activities, β-secretase (BACE1) activity and the protein level of BACE1 in vitro in FG01-overexpressing cells was examined and both were unchanged. FG01 cell clones identified by RHKO were treated with DMSO (control) or 2 μg/ml doxycycline for 72 hrs. In some experiments, N2a cells were transfected with control vector (Con) or FG01 vector for 48 hrs. Cell lysates were assayed for β-secretase activity. FG01 was transfected into N2a cells and equal protein lysates were subjected to SDS-PAGE and Western blot with antibodies against BACE1 (Yan et al., 2001), nicastrin (Leem et al., 2002) or Myc. APP βCTF accumulation can also be attributed to a decrease in γ-secretase-mediated cleavage.

CDK5 = CDK5 protein level and in vitro activity in N2a cells; format: cell-based, mouse; conditions: FG01 overexpression
Description: The in vitro activity of CDK5 was assayed as described (Han et al., 2005). Briefly, CDK5 protein was immunoprecipitated and incubated with histone-H1 in [γ-^32P]ATP-containing buffer. After reaction termination, samples were subjected to SDS-PAGE and autoradiography. Results were quantified using a PhosphoImager (Molecular Dynamics).
GSK-3 is a major kinase that phosphorylates tau in AD (Flaherty et al., 2000). […] N2aSwe cells were cotransfected with the human tau splice variant T40 and with FG01 (or control vectors), and examined tau phosphorylation at the threonine 205 site (Thr205) and the PHF-1 tau epitope sites (serine 396 and serine 404), which are GSK-3 phosphorylation targets, and at the major paired helical filament (PHF) sites found in NFTs. […] Protein levels and activity of CDK5, another kinase mediating tau phosphorylation in AD (Flaherty et al., 2000), was analyzed following FG01 overexpression. […] N2a cells were transfected with FG01 or a control vector (Con). Equal cell lysate proteins were used for assaying in vitro CDK5 activity.

Aβ generation = Aβ generation / APP processing in N2aSwe cells overexpressing FG01 (IP-Western blot); format: cell-based, mouse
Description: To investigate FG01's effects on Aβ generation, the His6-tagged recombinant FG01 was overexpressed in N2aSwe cells. The levels of βCTF, APP, sAPPα and secreted and intracellular Aβ were then quantified in the transfected cells and compared to those parental cells.
The His6-tagged FG01 was overexpressed in N2aSwe cells. The secreted and intracellular Aβ were immunoprecipitated by 4G8. The precipitated peptides and sAPPα, βCTF, full length APP and FG01 were analyzed by Western blots. α-tubulin was used as loading control. The levels of the proteins were quantified by densitometry and normalized and compared to those in vector transfected control.
To corroborate this, FG01 was over expressed in N2aSwe cells.

PKA = PKA inhibitor H89 treatment of FG01-transfected N2aSwe cells; format: cell-based, mouse; conditions: FG01-transfected cells treated with H89
Description: After 48 hr incubation, cell media were changed to Opti-MEM (Invitrogen) containing DMSO or a PKA activity inhibitor H89 (2 μM) and cells were incubated for additional 4 hrs. The cell media were used for Aβ immunoprecipitation-Western blotting and cell lysates were subjected to Western blotting for p-CREB (substrate for PKA) and p-GSK3β. As shown, inhibiting PKA activity with H89 prevented serine phosphorylation of CREB and GSK3β by FG01.
N2aSwe cells were transfected with control vector or FG01 and then equally split. Four hours before collection, cells were treated with the GSK-3 inhibitor lithium chloride (5 mM) or sodium chloride (5 mM, as control). Alternatively, cells were treated with a PKA inhibitor H89 at 10 μM or with DMSO for control.

GSK-3α/β [2] = test: phospho-GSK-3α/β Western blot in human HeLaSwe and HEK293 cells; format: cell-based
Source text: Expression of β-catenin, inactivated phospho-GSK-3β, total GSK-3, APP, β-CTF and FG01 in transfected human HEK293 cells were shown by Western blots.
as §1

cAMP levels = test: cAMP assay in rat PC12 cells; format: cell-based; conditions: FG01 overexpression
Description: Commercial kits were used to assay in vitro activities of GSK-3β (Sigma) and PKA (Upstate). For GSK-3α activity, a commercial GSK-3β activity assay kit was used but the procedure to immunoprecititate GSK-3β was replaced with immunoprecipitation of GSK-3α using an anti-GSK-3α antibody (Cell Signaling). cAMP levels were assayed using a commercial kit (Biovision).

[3] = FG01-transfected N2aSwe cells, 5 mM LiCl 4 hrs
[4] = FG01 overexpression in N2aSwe cells

B1: FG01: 141 amino acid transmembrane protein encoded by mouse retrogene fg01 (SEQ ID NO:2); expressed from transfected vector or transgene (protein)
chain: MQSQQRNIGYFNHLKADSRNITYSMTFSTKSSNQNFIIFLNEVQAAIIGHERCDLLPVLNELHPDALPDGRIWLFGLNPYFFQHNSLCMRGTPKRIGLQGCAQVGFLVLFVMPLLIPSVTAELPGSSETTTLAHLAGATGP
modifications: Myc and His6 tags; homo sapien
notes: expressed from transfected vector or transgene
GSK-3α/β activity in the presence of lithium (GSK-3α/β [1]; [3]): could not further reduce
GSK-3 activities (inactivated phospho-GSK-3β) (GSK-3α/β [1]; FG01 overexpression, mouse N2a cells, Western blot): decreases
phospho-GSK-3α (Ser21) and phospho-GSK-3β (Ser9) levels (inactivated forms) (GSK-3α/β [1]; FG01 overexpression, mouse N2aSwe cells): more GSK-3α/β were phosphorylated; also recorded: more highly phosphorylated
protein level of BACE1 (β-secretase (BACE1); FG01-overexpressing N2a cells, Western blot): unchanged
β-secretase (BACE1) activity (β-secretase (BACE1); in vitro assay, FG01-overexpressing cells): did not significantly change; also recorded: unchanged
CDK5 in vitro activity (CDK5): Little change
CDK5 protein level (CDK5): Little change
Aβ production in the presence of lithium (Aβ generation; [3]): could not further reduce
levels of extracellular and intracellular Aβ (Aβ generation; [4]): dramatically reduced
levels of total APP (Aβ generation; [4]): not affected
sAPPα level (Aβ generation; [4]): stimulated; also recorded: greatly increased
βCTF level (Aβ generation; [4]): greatly accumulated; also recorded: greatly increased
levels of secreted and intracellular Aβ, reduction (Aβ generation; His6-tagged FG01 overexpressed in N2aSwe cells vs control, Aβ40 and 42 equally reduced): more than 50%
Aβ levels in LiCl-pretreated cells (Aβ generation; N2a/swe cells pretreated with 5 mM LiCl for 24 hrs before FG01 transfection): did not further decrease
inhibition of Aβ generation when PKA suppressed by H89 (PKA): failed to inhibit
inhibition of GSK-3 activity when PKA suppressed by H89 (PKA): failed to inhibit
GSK-3 activities (inactivated phospho-GSK-3β) (GSK-3α/β [2]; FG01 expression, human HEK293 cells, Western blot): decreases
phospho-GSK-3α (Ser21) and phospho-GSK-3β (Ser9) levels (GSK-3α/β [2]; FG01 overexpression, human HeLaSwe and HEK293 cells): more highly phosphorylated
increase of cAMP levels (cAMP levels): 75%
